# Reference: patent US20160222109A1 (DYAX, published 2016)
# B1: 532A-M0090-F11 soluble Fab (Fab)
# VH: EVQLLESGGGLVQPGGSLRLSCAASGFTFSEYAMGWVRQAPGKGLEWVSSIGSSGGQTKYADSVKGRFTISRDNSKNTLYLQMNSLRAEDTAVYYCARLSTGELYWGQGTLVTVSS
# light: QSVLTQPASVSGSPGQSITISCTGTGSDVGSYNLVSWYQKYPGKAPKLIIYGDSQRPSGLSSRFSGSKSGNSASLTISGLQAEDEADYYCCSYAGSGIYVFGSGTKVTVLSQPKANPTVTLFPPSSEELQANKATLVCLISDFYPGAVTVAWKADGSPVKAGVETTKPSKQSNNKYAASSYLSLTPEQWKSHRSYSCQVTHEGSTVEKTVAPAECS
# notes: sFab from phage display; CH1 not set out for the Fab; also called M90-F11 (Fab); M090-F11
# B2: 532A-M0090-F11 (germlined LC changes) IgG (antibody)
# heavy: EVQLLESGGGLVQPGGSLRLSCAASGFTFSEYAMGWVRQAPGKGLEWVSSIGSSGGQTKYADSVKGRFTISRDNSKNTLYLQMNSLRAEDTAVYYCARLSTGELYWGQGTLVTVSSASTKGPSVFPLAPSSKSTSGGTAALGCLVKDYFPEPVTVSWNSGALTSGVHTFPAVLQSSGLYSLSSVVTVPSSSLGTQTYICNVNHKPSNTKVDKKVEPKSCDKTHTCPPCAPELLGGPSVFLFPPKPKDTLMISRTPEVTCVVVDVSHEDPEVKFNWYVDGVEVHNAKTKPREEQYNSTYRVVSVLTVLHQDWLNGKEYKCKVSNKALPAPIEKTISKAKGQPREPQVYTLPPSPREPQVYTLPPSRDELTKNQVSLTCLVKGFYPSDIAVEWESNGQPENNYKTTPPVLDSDGSFFLYSKLTVDKSRWQQGNVFSCSVMHEALHNHYTQKSLSLSPGK
# light: QSALTQPASVSGSPGQSITISCTGTGSDVGSYNLVSWYQQHPGKAPKLMIYGDSQRPSGVSNRFSGSKSGNTASLTISGLQAEDEADYYCCSYAGSGIYVFGTGTKVTVLGQPKANPTVTLFPPSSEELQANKATLVCLISDFYPGAVTVAWKADGSPVKAGVETTKPSKQSNNKYAASSYLSLTPEQWKSHRSYSCQVTHEGSTVEKTVAPTECS
# notes: also called Germlined M90-F11 (GL)
# B3: DX-2500 (germlined LC & allotype HC changes) (antibody)
# heavy: EVQLLESGGGLVQPGGSLRLSCAASGFTFSEYAMGWVRQAPGKGLEWVSSIGSSGGQTKYADSVKGRFTISRDNSKNTLYLQMNSLRAEDTAVYYCARLSTGELYWGQGTLVTVSSASTKGPSVFPLAPSSKSTSGGTAALGCLVKDYFPEPVTVSWNSGALTSGVHTFPAVLQSSGLYSLSSVVTVPSSSLGTQTYICNVNHKPSNTKVDKRVEPKSCDKTHTCPPCAPELLGGPSVFLFPPKPKDTLMISRTPEVTCVVVDVSHEDPEVKFNWYVDGVEVHNAKTKPREEQYNSTYRVVSVLTVLHQDWLNGKEYKCKVSNKALPAPIEKTISKAKGQPREPQVYTLPPSPREPQVYTLPPSREEMTKNQVSLTCLVKGFYPSDIAVEWESNGQPENNYKTTPPVLDSDGSFFLYSKLTVDKSRWQQGNVFSCSVMHEALHNHYTQKSLSLSPGK
# light: QSALTQPASVSGSPGQSITISCTGTGSDVGSYNLVSWYQQHPGKAPKLMIYGDSQRPSGVSNRFSGSKSGNTASLTISGLQAEDEADYYCCSYAGSGIYVFGTGTKVTVLGQPKANPTVTLFPPSSEELQANKATLVCLISDFYPGAVTVAWKADGSPVKAGVETTKPSKQSNNKYAASSYLSLTPEQWKSHRSYSCQVTHEGSTVEKTVAPTECS
# notes: IgG, F allotype; 13 amino acid changes against parent M90-F11
# What was measured:
# [1] = biological target: T1, soluble human FcRn (extra-cellular domain of heavy chain and β2M) (human, UniProt P55899 24-297; P61769 21-119); test: SPR 8500, hFcRn pH 6
# T1 construct: also called shFcRn; soluble hFcRn
# T1 sequence (P55899 24-297 limits assumed, chain 1 of 2): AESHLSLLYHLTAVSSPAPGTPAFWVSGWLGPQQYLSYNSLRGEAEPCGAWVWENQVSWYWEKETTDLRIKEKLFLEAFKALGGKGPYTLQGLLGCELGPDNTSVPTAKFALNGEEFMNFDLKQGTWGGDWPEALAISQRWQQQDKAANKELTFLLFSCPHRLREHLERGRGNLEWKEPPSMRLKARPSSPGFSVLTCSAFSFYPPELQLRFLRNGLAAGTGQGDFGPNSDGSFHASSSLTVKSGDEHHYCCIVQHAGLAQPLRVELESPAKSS
# T1 sequence (P61769 21-119 limits assumed, chain 2 of 2): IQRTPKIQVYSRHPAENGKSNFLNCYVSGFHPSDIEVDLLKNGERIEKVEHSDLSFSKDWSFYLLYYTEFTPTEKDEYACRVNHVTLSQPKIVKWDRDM
# [2] = biological target: T1, soluble human FcRn (extra-cellular …); test: SPR 8500, hFcRn pH 6; remark: listed apart in the source
# [3] = biological target: T1, soluble human FcRn (extra-cellular …); test: SPR, sol Fab, pH 6.0
# [4] = biological target: T1, soluble human FcRn (extra-cellular …); test: SPR, sol Fab, pH 7.4
# [5] = biological target: T1, soluble human FcRn (extra-cellular …); test: SPR 8500, hFcRn pH 7.4
# [6] = biological target: T1, soluble human FcRn (extra-cellular …); test: SPR 8500, hFcRn pH 7.4; remark: listed apart in the source
# soluble rat FcRn [7] = biological target: T2, soluble rat FcRn (rat, UniProt P13599 23-298; P07151 21-119); test: SPR 8500, rat FcRn pH 6
# T2 construct: Soluble protein; whole entries named; also called sol rat FcRn
# T2 sequence: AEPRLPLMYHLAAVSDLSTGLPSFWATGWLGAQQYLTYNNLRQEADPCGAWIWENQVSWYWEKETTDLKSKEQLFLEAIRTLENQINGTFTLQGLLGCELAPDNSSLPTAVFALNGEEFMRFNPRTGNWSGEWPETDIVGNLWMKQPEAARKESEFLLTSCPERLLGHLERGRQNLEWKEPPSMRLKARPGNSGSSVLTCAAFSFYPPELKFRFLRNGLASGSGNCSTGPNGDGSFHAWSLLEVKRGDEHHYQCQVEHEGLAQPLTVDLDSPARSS
# T2 sequence (b2m): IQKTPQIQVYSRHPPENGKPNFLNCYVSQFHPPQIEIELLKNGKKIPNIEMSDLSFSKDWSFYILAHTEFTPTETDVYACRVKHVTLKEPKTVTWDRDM
# [8] = biological target: T1, soluble human FcRn (extra-cellular …); test: SPR 8500, sol Fab, pH 6
# soluble rat FcRn [9] = biological target: T2, soluble rat FcRn; test: SPR 8500, sol Fab, pH 6
# soluble rat FcRn [10] = biological target: T2, soluble rat FcRn; test: SPR 8500, rat FcRn pH 6; remark: listed apart in the source
# [11] = biological target: T1, soluble human FcRn (extra-cellular …); test: SPR 8500, sol Fab, pH 7.5
# soluble rat FcRn [12] = biological target: T2, soluble rat FcRn; test: SPR 8500, sol Fab, pH 7.5
# soluble rat FcRn [13] = biological target: T2, soluble rat FcRn; test: SPR 8500, rat FcRn pH 7.4
# [14] = biological target: T3, human FcRn / human β2M expressed in 293 C11 cells (human, UniProt P55899 24-365; P61769 21-119); test: FACS blocking of IgG-Fc, sol Fab, pH 6
# T3 construct: HEK 293 cells engineered to overexpress FcRn; also called hFcRn (cells); hFcRn in THP-1 and Caco-2 cells
# T3 sequence (P55899 24-365 limits assumed, chain 1 of 2): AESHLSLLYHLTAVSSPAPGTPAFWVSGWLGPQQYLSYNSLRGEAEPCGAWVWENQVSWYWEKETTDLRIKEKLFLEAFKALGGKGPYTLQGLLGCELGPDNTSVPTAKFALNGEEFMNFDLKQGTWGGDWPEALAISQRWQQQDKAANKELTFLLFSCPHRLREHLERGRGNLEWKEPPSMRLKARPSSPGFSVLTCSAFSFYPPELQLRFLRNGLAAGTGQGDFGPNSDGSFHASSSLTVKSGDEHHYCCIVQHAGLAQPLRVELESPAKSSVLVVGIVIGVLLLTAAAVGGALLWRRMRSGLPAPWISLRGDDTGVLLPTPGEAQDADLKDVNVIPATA
# T3 sequence (P61769 21-119 limits assumed, chain 2 of 2): as the sequence (P61769 21-119 limits assumed, chain 2 of 2) above
# [15] = biological target: T4, rat FcRn / rat β2M expressed on cells (rat, UniProt P13599 23-366; P07151 21-119); test: FACS blocking of IgG-Fc, sol Fab, pH 6
# T4 construct: also called rat FcRn (cells); rat fibroblasts expressing rat FcRn
# T4 sequence: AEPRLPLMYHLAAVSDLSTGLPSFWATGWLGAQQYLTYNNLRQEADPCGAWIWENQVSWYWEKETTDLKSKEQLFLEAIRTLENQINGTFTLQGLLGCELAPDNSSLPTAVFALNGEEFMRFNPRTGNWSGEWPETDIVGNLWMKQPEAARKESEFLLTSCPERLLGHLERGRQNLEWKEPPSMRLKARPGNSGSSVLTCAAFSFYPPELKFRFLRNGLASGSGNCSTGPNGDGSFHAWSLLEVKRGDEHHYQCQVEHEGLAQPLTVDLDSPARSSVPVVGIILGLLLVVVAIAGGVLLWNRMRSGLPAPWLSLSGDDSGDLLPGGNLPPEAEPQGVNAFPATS
# T4 sequence (b2m): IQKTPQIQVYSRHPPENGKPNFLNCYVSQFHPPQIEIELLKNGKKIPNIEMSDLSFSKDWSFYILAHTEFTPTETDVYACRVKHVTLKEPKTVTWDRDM
# soluble rat FcRn [16] = biological target: T2, soluble rat FcRn; test: SPR 8500, rat FcRn pH 7.4; rat FcRn pH 7.4
# [17] = biological target: T3, human FcRn / human β2M expressed in 293 …; test: FACS blocking, hFcRn cells, pH 6
# [18] = biological target: T1, soluble human FcRn (extra-cellular …); test: Biacore, hFcRn on chip, IgG flowed, pH 6
# [19] = biological target: T1, soluble human FcRn (extra-cellular …); test: Biacore, IgG on chip, hFcRn flowed, pH 6
# [20] = biological target: T1, soluble human FcRn (extra-cellular …); test: Biacore, hFcRn on chip, IgG flowed, pH 7.4
# [21] = biological target: T1, soluble human FcRn (extra-cellular …); test: Biacore, IgG on chip, hFcRn flowed, pH 7.4
# [22] = biological target: T1, soluble human FcRn (extra-cellular …); test: Biacore, IgG on chip, hFcRn flowed, pH 7.4; remark: listed apart in the source
binder,measurement,setting,value
B1,Kd,[1],9.2 nM
same,Kd,[2],6.11 nM
same,Kd,[3],12 nM
same,Fold Kd Improvement Over Germlined M90-F11,[4],2.3 fold
same,Kd,[4],13 nM
same,Kd,[5],19.1 nM
same,Kd,[6],7.08 nM
same,Kd,soluble rat FcRn [7],31.2 nM
same,Kd,[8],9.2 nM
same,Kd,soluble rat FcRn [9],31.2 nM
same,Kd,soluble rat FcRn [10],20.3 nM
same,Kd,[11],19.1 nM
same,Kd,soluble rat FcRn [12],9.9 nM
same,Kd,soluble rat FcRn [13],3.29 nM
same,IC50,[14],13 nM
same,IC50,[15],6.48 µM
same,Kd,soluble rat FcRn [16],9.96 nM
B2,IC50,[17],0.38 nM
same,Kd,[18],0.172 nM
same,koff,[18],0.000764 s⁻¹
same,kon,[18],4.45e+06 M⁻¹ s⁻¹
same,Kd,[19],29.9 nM
same,koff,[19],0.0172 s⁻¹
same,kon,[19],574000 M⁻¹ s⁻¹
same,Kd,[20],0.779 nM
same,koff,[20],0.000776 s⁻¹
same,kon,[20],996000 M⁻¹ s⁻¹
same,Kd,[21],35.2 nM
same,koff,[21],0.0152 s⁻¹
same,kon,[21],433000 M⁻¹ s⁻¹
B3,IC50,[17],0.65 nM
same,Kd,[18],0.16 nM
same,koff,[18],0.000336 s⁻¹
same,kon,[18],2.11e+06 M⁻¹ s⁻¹
same,Kd,[19],27.6 nM
same,koff,[19],0.0177 s⁻¹
same,kon,[19],642000 M⁻¹ s⁻¹
same,Kd,[20],0.268 nM
same,koff,[20],0.000338 s⁻¹
same,kon,[20],1.26e+06 M⁻¹ s⁻¹
same,K off Fold improvement over DX2500,[22],1 fold
same,K off Fold improvement over M90-F11,[22],0.15 fold
same,KD Fold improvement over DX2500,[22],1 fold
same,KD Fold improvement over M90-F11,[22],0.21 fold
same,Kd,[22],87.9 nM
same,koff,[22],0.0197 s⁻¹
same,kon,[22],224000 M⁻¹ s⁻¹
